Laboratory results published in the supplement of paper PMC10065799, “High-throughput profiling of sequence recognition by tyrosine kinases and SH2 domains using bacterial peptide display” (eLife, 2023).

Target: FGFR3 (UniProt P22607)
Test: phosphorylation enrichment, bacterial display (enrichment ratio); higher = better substrate or ligand; peptides without Tyr show the background
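Note: 11-residue human phosphosite peptides and single-mutation variants displayed on the E. coli surface, counted by deep sequencing, each peptide's frequency after selection divided by its frequency in the unselected input library; frequency after pTyr selection over input frequency; kinase dosed for 20-30% of maximal phosphorylation in three min.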

Sequence of FGFR3 (P22607 whole entry, looked up): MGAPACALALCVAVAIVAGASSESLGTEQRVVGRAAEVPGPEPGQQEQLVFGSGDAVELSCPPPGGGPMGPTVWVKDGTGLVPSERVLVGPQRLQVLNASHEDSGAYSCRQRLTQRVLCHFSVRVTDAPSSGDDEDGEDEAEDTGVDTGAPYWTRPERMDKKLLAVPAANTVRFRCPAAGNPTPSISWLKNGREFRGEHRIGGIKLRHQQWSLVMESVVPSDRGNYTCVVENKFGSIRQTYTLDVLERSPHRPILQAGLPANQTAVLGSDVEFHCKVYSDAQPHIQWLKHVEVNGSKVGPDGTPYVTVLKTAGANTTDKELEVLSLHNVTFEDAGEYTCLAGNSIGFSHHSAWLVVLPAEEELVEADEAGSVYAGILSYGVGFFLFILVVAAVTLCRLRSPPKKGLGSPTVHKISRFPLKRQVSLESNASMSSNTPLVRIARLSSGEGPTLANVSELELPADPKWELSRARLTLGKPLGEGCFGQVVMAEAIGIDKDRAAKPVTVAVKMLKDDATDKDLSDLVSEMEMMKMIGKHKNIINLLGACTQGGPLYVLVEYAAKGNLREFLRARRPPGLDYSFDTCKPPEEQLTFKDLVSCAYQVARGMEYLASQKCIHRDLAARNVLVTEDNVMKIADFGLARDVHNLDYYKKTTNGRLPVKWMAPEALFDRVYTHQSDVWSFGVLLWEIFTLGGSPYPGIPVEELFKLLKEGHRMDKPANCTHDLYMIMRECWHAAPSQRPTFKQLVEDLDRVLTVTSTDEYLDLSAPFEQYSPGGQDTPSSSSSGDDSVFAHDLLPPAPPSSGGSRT

Sequence	phosphorylation enrichment
SVVVPYEPAEV [TP53_Y220_P223A]	0.719
MLEVPYVDHNS [F10_Y384_R387H]	0.786
LVIIKYLPEWT [PSEN1_Y240_F237I]	2.62
AGLVQYFMEHH [PTPN11_Y80_E76G_YF]	0.782
RELGEYPLAEF [ALDH1A3_Y492_A493P_YF]	0.742
LIHTKYPQLLP [AHCY_Y143]	0.573
MQMEEYRGRVE [BTNL2_Y91_W94R]	0.539
EDEGLYMVRVP [MYOM3_Y343]	0.736
FKGIVYSVSSD [DCX_Y70_A71S]	0.666
PLGVPYLDKPP [JMJD7_Y31_A28G]	0.825
QPAGNYSLSSV [ARFGAP3_Y473]	0.75
CTNPQYLAAGS [RABL3_Y185_R184Q]	0.609
RGDTVYTVNRM [KBTBD13_Y404]	1.21
FESPRYLQVRI [FANCA_Y488_H492R]	0.572
AHAGEYGAGAL [HBA1_Y25_E28G]	0.485
FFRKFCNKSED [RYR1_Y4864_Y4864C]	0.6
EPSVDYCVVKI [CAD_Y735]	1.71

Sequence	phosphorylation enrichment
SAQHHYESLQT [BIN1_Y157_R154Q]	0.442
AAPAAHDAADT [GAMT_Y27_Y27H]	0.452
SHKELYKWFTS [DYNC1H1_Y3051_E3048K]	0.501
CFTRQYTLPPG [HSPB1_Y142_K141Q]	0.656
LFCVHYFHRTF [SRD5A2_Y91]	1.97
SSENPCATIKD [MEGF10_Y1030_Y1030C]	0.602
ACRSLYGGFVE [MVD_Y164]	0.727
SKAFAYVHFDS [PABPC5_Y149_G146A_YF]	0.828
SVVVPYEPLEV [TP53_Y220_P223L]	0.836
VAFLYYKSIGP [ADGRL4_Y302_V300L]	1.09
CTTIHYNFMCK [TP53_Y234_N239K_YF]	0.489
TKVVHYRKWIK [KLK2_Y249]	0.432
RKRQFYLYKGK [RSPO4_Y112_C107R]	0.4
EALSLYTKLMN [STAM_Y371]	0.856
GQSKGYRPKLY [SIPA1L3_Y1376]	0.454
WNDPDYMDSRR [GAA_Y407_L405P]	0.727

System: Fer (mouse)
Test: as above

Sequence	phosphorylation enrichment
SVVVPYEPAEV [TP53_Y220_P223A]	0.596
MLEVPYVDHNS [F10_Y384_R387H]	0.583
LVIIKYLPEWT [PSEN1_Y240_F237I]	0.911
AGLVQYFMEHH [PTPN11_Y80_E76G_YF]	0.474
RELGEYPLAEF [ALDH1A3_Y492_A493P_YF]	0.484
LIHTKYPQLLP [AHCY_Y143]	0.395
MQMEEYRGRVE [BTNL2_Y91_W94R]	0.424
EDEGLYMVRVP [MYOM3_Y343]	1.89
FKGIVYSVSSD [DCX_Y70_A71S]	0.399
PLGVPYLDKPP [JMJD7_Y31_A28G]	0.574
QPAGNYSLSSV [ARFGAP3_Y473]	0.623
CTNPQYLAAGS [RABL3_Y185_R184Q]	0.47
RGDTVYTVNRM [KBTBD13_Y404]	0.83
FESPRYLQVRI [FANCA_Y488_H492R]	0.589
AHAGEYGAGAL [HBA1_Y25_E28G]	0.384
FFRKFCNKSED [RYR1_Y4864_Y4864C]	0.417
EPSVDYCVVKI [CAD_Y735]	1.26

Sequence	phosphorylation enrichment
SAQHHYESLQT [BIN1_Y157_R154Q]	0.703
AAPAAHDAADT [GAMT_Y27_Y27H]	0.418
SHKELYKWFTS [DYNC1H1_Y3051_E3048K]	0.574
CFTRQYTLPPG [HSPB1_Y142_K141Q]	0.496
LFCVHYFHRTF [SRD5A2_Y91]	1.47
SSENPCATIKD [MEGF10_Y1030_Y1030C]	0.445
ACRSLYGGFVE [MVD_Y164]	0.605
SKAFAYVHFDS [PABPC5_Y149_G146A_YF]	0.537
SVVVPYEPLEV [TP53_Y220_P223L]	0.934
VAFLYYKSIGP [ADGRL4_Y302_V300L]	0.589
CTTIHYNFMCK [TP53_Y234_N239K_YF]	0.351
TKVVHYRKWIK [KLK2_Y249]	0.373
RKRQFYLYKGK [RSPO4_Y112_C107R]	0.494
EALSLYTKLMN [STAM_Y371]	0.509
GQSKGYRPKLY [SIPA1L3_Y1376]	0.411
WNDPDYMDSRR [GAA_Y407_L405P]	0.432

Target: Fes (UniProt P07332)
Test: as above

Sequence of Fes (P07332 whole entry, looked up): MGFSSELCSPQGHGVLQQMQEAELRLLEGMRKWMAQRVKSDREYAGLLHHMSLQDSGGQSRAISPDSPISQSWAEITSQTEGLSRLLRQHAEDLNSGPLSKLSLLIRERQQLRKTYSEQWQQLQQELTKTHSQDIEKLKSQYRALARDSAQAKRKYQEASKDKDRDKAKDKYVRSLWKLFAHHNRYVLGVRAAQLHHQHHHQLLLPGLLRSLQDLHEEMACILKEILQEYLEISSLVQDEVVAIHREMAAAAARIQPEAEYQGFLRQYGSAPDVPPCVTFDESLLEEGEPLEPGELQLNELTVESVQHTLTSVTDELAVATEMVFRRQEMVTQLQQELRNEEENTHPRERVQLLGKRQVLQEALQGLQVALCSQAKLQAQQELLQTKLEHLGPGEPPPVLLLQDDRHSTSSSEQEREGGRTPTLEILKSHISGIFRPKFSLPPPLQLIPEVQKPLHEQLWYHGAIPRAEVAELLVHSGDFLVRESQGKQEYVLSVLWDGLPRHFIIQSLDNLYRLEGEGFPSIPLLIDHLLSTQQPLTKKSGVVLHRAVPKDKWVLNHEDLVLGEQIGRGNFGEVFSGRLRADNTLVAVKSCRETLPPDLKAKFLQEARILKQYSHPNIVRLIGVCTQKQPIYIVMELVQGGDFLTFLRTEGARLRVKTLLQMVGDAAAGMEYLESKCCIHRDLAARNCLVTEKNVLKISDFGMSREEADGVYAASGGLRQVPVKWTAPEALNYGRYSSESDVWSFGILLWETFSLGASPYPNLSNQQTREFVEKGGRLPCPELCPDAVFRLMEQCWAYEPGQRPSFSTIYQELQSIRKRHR

Sequence	phosphorylation enrichment
SVVVPYEPAEV [TP53_Y220_P223A]	1.18
MLEVPYVDHNS [F10_Y384_R387H]	1.42
LVIIKYLPEWT [PSEN1_Y240_F237I]	2.86
AGLVQYFMEHH [PTPN11_Y80_E76G_YF]	1.12
RELGEYPLAEF [ALDH1A3_Y492_A493P_YF]	1.14
LIHTKYPQLLP [AHCY_Y143]	0.81
MQMEEYRGRVE [BTNL2_Y91_W94R]	0.874
EDEGLYMVRVP [MYOM3_Y343]	1.43
FKGIVYSVSSD [DCX_Y70_A71S]	1.11
PLGVPYLDKPP [JMJD7_Y31_A28G]	1.64
QPAGNYSLSSV [ARFGAP3_Y473]	0.946
CTNPQYLAAGS [RABL3_Y185_R184Q]	0.849
RGDTVYTVNRM [KBTBD13_Y404]	1.35
FESPRYLQVRI [FANCA_Y488_H492R]	0.985
AHAGEYGAGAL [HBA1_Y25_E28G]	0.539
FFRKFCNKSED [RYR1_Y4864_Y4864C]	1.04
EPSVDYCVVKI [CAD_Y735]	1.11

Sequence	phosphorylation enrichment
SAQHHYESLQT [BIN1_Y157_R154Q]	0.622
AAPAAHDAADT [GAMT_Y27_Y27H]	0.665
SHKELYKWFTS [DYNC1H1_Y3051_E3048K]	0.812
CFTRQYTLPPG [HSPB1_Y142_K141Q]	0.943
LFCVHYFHRTF [SRD5A2_Y91]	2.73
SSENPCATIKD [MEGF10_Y1030_Y1030C]	0.823
ACRSLYGGFVE [MVD_Y164]	1.04
SKAFAYVHFDS [PABPC5_Y149_G146A_YF]	1.36
SVVVPYEPLEV [TP53_Y220_P223L]	1.23
VAFLYYKSIGP [ADGRL4_Y302_V300L]	1.54
CTTIHYNFMCK [TP53_Y234_N239K_YF]	0.816
TKVVHYRKWIK [KLK2_Y249]	0.614
RKRQFYLYKGK [RSPO4_Y112_C107R]	0.432
EALSLYTKLMN [STAM_Y371]	1.48
GQSKGYRPKLY [SIPA1L3_Y1376]	0.489
WNDPDYMDSRR [GAA_Y407_L405P]	1

Target: Fyn (UniProt P06241)
Test: as above

Sequence of Fyn (P06241 whole entry, looked up): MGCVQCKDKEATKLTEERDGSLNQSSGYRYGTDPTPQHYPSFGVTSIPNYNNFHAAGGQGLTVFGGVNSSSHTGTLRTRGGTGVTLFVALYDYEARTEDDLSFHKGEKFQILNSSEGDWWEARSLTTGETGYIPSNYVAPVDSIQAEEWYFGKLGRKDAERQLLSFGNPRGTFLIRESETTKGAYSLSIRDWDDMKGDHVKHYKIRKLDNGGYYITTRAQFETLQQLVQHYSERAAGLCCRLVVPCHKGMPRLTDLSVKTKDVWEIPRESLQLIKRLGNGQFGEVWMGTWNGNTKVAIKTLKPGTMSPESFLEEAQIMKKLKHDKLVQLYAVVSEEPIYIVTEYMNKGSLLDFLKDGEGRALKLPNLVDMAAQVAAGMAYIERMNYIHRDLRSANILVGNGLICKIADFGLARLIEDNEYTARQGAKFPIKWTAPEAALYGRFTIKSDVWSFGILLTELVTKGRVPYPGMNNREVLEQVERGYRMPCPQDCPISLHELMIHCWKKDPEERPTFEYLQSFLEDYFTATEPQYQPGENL

Sequence	phosphorylation enrichment
SVVVPYEPAEV [TP53_Y220_P223A]	0.433
MLEVPYVDHNS [F10_Y384_R387H]	0.416
LVIIKYLPEWT [PSEN1_Y240_F237I]	1.75
AGLVQYFMEHH [PTPN11_Y80_E76G_YF]	0.513
RELGEYPLAEF [ALDH1A3_Y492_A493P_YF]	0.636
LIHTKYPQLLP [AHCY_Y143]	0.449
MQMEEYRGRVE [BTNL2_Y91_W94R]	0.379
EDEGLYMVRVP [MYOM3_Y343]	3.03
FKGIVYSVSSD [DCX_Y70_A71S]	0.666
PLGVPYLDKPP [JMJD7_Y31_A28G]	0.679
QPAGNYSLSSV [ARFGAP3_Y473]	0.424
CTNPQYLAAGS [RABL3_Y185_R184Q]	0.537
RGDTVYTVNRM [KBTBD13_Y404]	5.2
FESPRYLQVRI [FANCA_Y488_H492R]	0.513
AHAGEYGAGAL [HBA1_Y25_E28G]	0.405
FFRKFCNKSED [RYR1_Y4864_Y4864C]	0.589
EPSVDYCVVKI [CAD_Y735]	0.577

Sequence	phosphorylation enrichment
SAQHHYESLQT [BIN1_Y157_R154Q]	0.418
AAPAAHDAADT [GAMT_Y27_Y27H]	0.45
SHKELYKWFTS [DYNC1H1_Y3051_E3048K]	0.513
CFTRQYTLPPG [HSPB1_Y142_K141Q]	0.388
LFCVHYFHRTF [SRD5A2_Y91]	1.04
SSENPCATIKD [MEGF10_Y1030_Y1030C]	0.468
ACRSLYGGFVE [MVD_Y164]	11.2
SKAFAYVHFDS [PABPC5_Y149_G146A_YF]	0.382
SVVVPYEPLEV [TP53_Y220_P223L]	0.587
VAFLYYKSIGP [ADGRL4_Y302_V300L]	0.45
CTTIHYNFMCK [TP53_Y234_N239K_YF]	0.476
TKVVHYRKWIK [KLK2_Y249]	0.382
RKRQFYLYKGK [RSPO4_Y112_C107R]	0.503
EALSLYTKLMN [STAM_Y371]	0.402
GQSKGYRPKLY [SIPA1L3_Y1376]	0.45
WNDPDYMDSRR [GAA_Y407_L405P]	0.493
